How the values were obtained:
Fzd8 CRD [1] = biological target: T1, Fzd8 CRD (human, UniProt Q9H461 30-151, limits assumed, biotinylated); assay: SPR, biotinylated Fzd CRD captured on SA chip, DFB as analyte; SPR, Fzd8
T1 construct: domain: CRD; Species 'human' comes from the specificity statements; also called Fz8; frizzled 8 cysteine rich domain
T1 sequence (looked up): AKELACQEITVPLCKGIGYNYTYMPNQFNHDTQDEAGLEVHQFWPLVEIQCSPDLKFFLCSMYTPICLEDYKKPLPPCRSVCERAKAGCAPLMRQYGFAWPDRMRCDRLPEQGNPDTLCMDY
Protocol: (§1) Second, individual DFB proteins were purified and surface Plasmon Resonance (SPR) used to measure the affinity between Fzd CRD with the DFB. The biotinylated Fzd CRD was captured on SA sensor chip at low density. A gradient concentration of DFB analyte was flown over the chip. The data was analyzed by BIACore accompanying software.

Fzd7 CRD [2] = biological target: T2, Fzd7 CRD (human, UniProt O75084 44-163); assay: yeast surface display of DFB, titration with biotinylated Fzd CRD, flow cytometry; yeast titration, Fz7
Source text: (§2) To understand the affinity of individual DFBs towards different Fzd CRDs, two different methods were used to measure the specificity and affinity. DFBs were expressed on yeast surface and the yeast stained with biotinylated Fzd CRDs. The cells were washed and Streptavidin, Alexa Fluor™ 647 conjugates were used to stain the yeasts. The fluorescence signals were read on flow cytometry.

Fzd7 CRD [3] = biological target: T2, Fzd7 CRD; assay: SPR, biotinylated Fzd CRD captured on SA chip, DFB as analyte; SPR, Fzd7
Protocol: as §1

Fzd1 CRD [4] = biological target: T3, Fzd1 CRD (human, UniProt Q9UP38 111-230); assay: yeast surface display of DFB, titration with biotinylated Fzd CRD, flow cytometry; yeast titration, Fz1
Source text: as §2

Fzd7 CRD [5] = biological target: T2, Fzd7 CRD; assay: SPR: biotinylated Fzd7 CRD captured on an SA chip, 1AF34 as analyte, 63 nM down to 0.24 nM
Protocol: as §1

Fzd2 CRD [6] = biological target: T4, Fzd2 CRD (human, UniProt Q14332 34-153); assay: yeast surface display of DFB, titration with biotinylated Fzd CRD, flow cytometry; yeast titration, Fz2
Source text: as §2

Fzd7 CRD [7] = biological target: T2, Fzd7 CRD; assay: SPR, biotinylated Fzd CRD captured on SA chip, DFB as analyte
Protocol: as §1

Fzd8 CRD [8] = biological target: T1, Fzd8 CRD; assay: SPR: biotinylated Fzd8 CRD captured on an SA chip, 1AF34F7 as analyte, 1 uM down to 0.24 nM
Protocol: as §1

Fzd5 CRD [9] = biological target: T5, Fzd5 CRD (human, UniProt Q13467 28-150, limits assumed, biotinylated); assay: yeast surface display titration with biotinylated Fzd CRD, flow cytometry
T5 construct: domain: CRD; Species 'human' comes from the specificity statements; also called Fz5; frizzled 5 cysteine rich domain
T5 sequence (looked up): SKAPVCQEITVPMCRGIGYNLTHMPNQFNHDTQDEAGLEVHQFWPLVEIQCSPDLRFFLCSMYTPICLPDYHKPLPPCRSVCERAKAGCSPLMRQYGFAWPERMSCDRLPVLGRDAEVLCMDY

Fzd8 CRD [10] = biological target: T1, Fzd8 CRD; assay: SPR, biotinylated Fzd CRD captured on SA chip, DFB as analyte
Protocol: as §1

Fzd1 CRD [11] = biological target: T3, Fzd1 CRD; assay: yeast surface display of ANK12, staining with biotinylated Fzd CRD and streptavidin-Alexa Fluor 647, flow cytometry
Source text: as §2

Fzd2 CRD [12] = biological target: T4, Fzd2 CRD; assay: as above
Source text: as §2

Fzd7 CRD [13] = biological target: T2, Fzd7 CRD; assay: as above
Source text: as §2

Fzd4 CRD [14] = biological target: T6, Fzd4 CRD (human, UniProt Q9ULV1 40-161, limits assumed, biotinylated); assay: as above
T6 construct: domain: CRD; also called Fz4; frizzled 4 cysteine rich domain
T6 sequence (looked up): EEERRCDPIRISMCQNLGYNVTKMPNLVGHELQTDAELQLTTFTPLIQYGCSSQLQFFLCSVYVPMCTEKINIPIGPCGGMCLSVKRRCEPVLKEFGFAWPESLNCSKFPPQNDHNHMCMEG
Source text: as §2

Fzd5 CRD [15] = biological target: T5, Fzd5 CRD; assay: yeast surface display of DFB, titration with biotinylated Fzd CRD, flow cytometry
Source text: as §2

Fzd8 CRD [16] = biological target: T1, Fzd8 CRD; assay: as above
Source text: as §2

Fzd5 CRD [17] = biological target: T5, Fzd5 CRD; assay: yeast surface display of 4AF30, staining with biotinylated Fzd CRD and streptavidin-Alexa Fluor 647, flow cytometry
Source text: as §2

Fzd1 CRD [18] = biological target: T3, Fzd1 CRD; assay: as above
Source text: as §2

Fzd2 CRD [19] = biological target: T4, Fzd2 CRD; assay: as above
Source text: as §2

Fzd4 CRD [20] = biological target: T6, Fzd4 CRD; assay: SPR, biotinylated Fzd CRD captured on SA chip, DFB as analyte
Protocol: as §1

Fzd4 CRD [21] = biological target: T6, Fzd4 CRD; assay: yeast surface display of DFB, titration with biotinylated Fzd CRD, flow cytometry
Source text: as §2

B1: 1AF34 (designed binder)
chain: SELGTRLIRAALDGNKDRVKDLIENGADVNASLMSGATPLHAAAMNGHKEVVKLLISKGADVNAQSVAGSTPLDAAAFSGHKEVVKLLISKGADVNAVNAAGLTPLHAAADNGHKEVVKLLISKGADVNAKADHGMTPLHFAAQRGHKEVVKLLISKGADLNTSAKDGATPLDMARESGNEEVVKLLEKQLE
notes: Engineered ankyrin-repeat protein; Display fusion and tags are not described; also called DFB
Work on B1 yielded a Kd (Fzd8 CRD [1]) of 23 nM, an EC50 (Fzd7 CRD [2]) of 5.6 nM and a Kd (Fzd7 CRD [3]) of 1 nM. For the same binder, the EC50 (Fzd1 CRD [4]) was 19 nM, the Kd (Fzd7 CRD [5]) was 1.3 nM and the EC50 (Fzd2 CRD [6]) was 31.6 nM.

B2: 1AF34F7 (designed binder)
chain: SELGTRLIRAALDGNKDRVKDLIENGADVNASLMSGATPLHAAAMNGHKEVVKLLISKGADVNAQSVAGSTPLDAAAFSGHKEVVKLLISKGADVNAVNAAGLTPLHDAADDGHNEVVKLLISKGADVNAKADHGMTPLHFAAQRGHKEVVKLLISKGADLNTSAKDGATPLDMARESGNEEVVKLLEKQLE
notes: as for B1
Binder B2 has an EC50 (Fzd7 CRD [2]) of 1.8 nM, an EC50 (Fzd1 CRD [4]) of 7.5 nM and a Kd (Fzd7 CRD [7]) of 1.6 nM. The EC50 (Fzd2 CRD [6]) was 9.9 nM, the Kd (Fzd8 CRD [8]) was 2600 nM and the binding result (Fzd5 CRD [9]) was “no binding (tested: 1 µM)”.

B3: ANK12 (designed binder)
chain: SELGKRLIMAALDGNKDRVKDLIENGADVNASLVSGATPLHAAAMNGHKEVVKLLISKGADVNAQSAAGSTPLAAAAINGHKEVVKLLISKGADVNAVTAAGMTPLHAAAANGHKEVVKLLISKGADVNAKADRGMTPLHFAAWRGHKEVVKLLISKGADLNTSAKDGATPLDMARESGNEEVVKLLEKQLE
notes: as for B1
For B3, the Kd (Fzd8 CRD [10]) was 0.2 nM, the binding result (Fzd1 CRD [11]) was “no binding (tested: 1000 nM)” and the binding result (Fzd2 CRD [12]) was “no binding (tested: 1000 nM)”. For the same binder, the binding result (Fzd7 CRD [13]) was “no binding (tested: 1000 nM)”, the binding result (Fzd4 CRD [14]) was “no binding (tested: 1000 nM)” and the EC50 (Fzd5 CRD [15]) was 4.4 nM. The EC50 (Fzd8 CRD [16]) was 3.6 nM.

B4: 4AF30 (designed binder)
chain: SELGKRLIRAALDGNKDRVKDLIENGADVNASLMSGTTPLYAAAMNGHKEVVKLLISKGADVNAQSVAGSTPLVAAANFGHNEVVKLLISKGADVNAVTAFGVTPLHAAAADGHKEVVKLLISKGADVNAKAGRGMTPLHIAAFRGHKEVVKLLISKGADLNTSAKDGATPLDMARESGNEEVVKLLEKQLE
notes: as for B1
B4: no binding (tested: 1000 nM) (Fzd5 CRD [17]); no binding (tested: 1000 nM) (Fzd1 CRD [18]); no binding (tested: 1000 nM) (Fzd2 CRD [19]). The Kd (Fzd8 CRD [10]) was 400 nM, the Kd (Fzd4 CRD [20]) was 1.4 nM and the EC50 (Fzd4 CRD [21]) was 1.6 nM.

Reference: patent US20250034527A1 (Stanford University, published 2025)
